For five molecules, binding result and Kd results are on record in paper doi:10.1101/2023.06.13.544862 (bioRxiv, 2023).

Ends that are not written are not given here. Me3 = trimethyl-lysine; Me2 = dimethyl-lysine

The target in assay [1] is GST-tagged EED, wild type (human, UniProt O75530 1-441). Kind of assay: pull-down.
Assay [2] has as its target JMJD3 JmjC domain labelled for microscale thermophoresis (UniProt O15054 1339-1502, labeled with Protein Labeling kit RED-NHS). The assay can be described thus: MST.

Chain of JMJD3 JmjC domain labelled for microscale thermophoresis (O15054 1339-1502): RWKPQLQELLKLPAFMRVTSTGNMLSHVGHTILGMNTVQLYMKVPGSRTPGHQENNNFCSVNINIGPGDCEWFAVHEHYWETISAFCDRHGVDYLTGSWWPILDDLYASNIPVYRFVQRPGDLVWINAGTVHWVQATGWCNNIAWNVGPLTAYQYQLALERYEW
Chain of GST-tagged EED, wild type (O75530 whole entry, the tested form may be a part): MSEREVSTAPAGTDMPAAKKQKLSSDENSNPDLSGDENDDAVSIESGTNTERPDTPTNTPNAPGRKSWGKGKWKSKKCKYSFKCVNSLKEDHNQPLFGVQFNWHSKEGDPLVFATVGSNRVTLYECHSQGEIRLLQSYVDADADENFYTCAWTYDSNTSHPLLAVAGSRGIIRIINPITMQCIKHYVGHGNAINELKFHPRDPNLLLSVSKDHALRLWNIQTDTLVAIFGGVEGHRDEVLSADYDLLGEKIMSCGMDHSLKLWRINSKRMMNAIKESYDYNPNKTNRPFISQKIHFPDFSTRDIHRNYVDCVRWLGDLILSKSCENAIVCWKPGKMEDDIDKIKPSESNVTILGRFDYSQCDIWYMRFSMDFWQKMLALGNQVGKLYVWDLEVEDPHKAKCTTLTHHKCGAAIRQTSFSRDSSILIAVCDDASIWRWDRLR

B1: 6xHis-tagged NOP16 (natural protein, human, UniProt Q9Y3C1 1-178, looked up)
chain: MPKAKGKTRRQKFGYSVNRKRLNRNARRKAAPRIECSHIRHAWDHAKSVRQNLAEMGLAVDPNRAVPLRKRKVKAMEVDIEERPKELVRKPYVLNDLEAEASLPEKKGNTLSRDLIDYVRYMVENHGEDYKAMARDEKNYYQDTPKQIRSKINVYKRFYPAEWQDFLDSLQKRKMEVE
Turning to B1, the binding result in assay [1] was “binds”.

B2: NOP16 aa 25-32 peptide, mono-methylated K29 (peptide, UniProt Q9Y3C1 25-32, looked up)
peptide: NARRK(Me)AAP
modifications: also: biotin
For orientation: Kd means the free concentration of one partner at which half of the binding sites on the other are occupied at equilibrium, for simple one-to-one binding. Lower therefore signals higher affinity. Consider B2, for which the equilibrium dissociation constant (Kd) in assay [2] worked out at 347 ± 224 µM.

B3: NOP16 aa 25-32 peptide, di-methylated K29 (peptide, UniProt Q9Y3C1 25-32, looked up)
peptide: NARRK(Me2)AAP
modifications: also: biotin
As to B3, in assay [2], the Kd amounted to 306 ± 101 µM.

B4: NOP16 aa 25-32 peptide, unmethylated K29 (peptide, UniProt Q9Y3C1 25-32, looked up)
peptide: NARRKAAP
modifications: also: biotin
In assay [2], B4 gave a Kd of 103 ± 65.2 µM.

B5: NOP16 aa 25-32 peptide, tri-methylated K29 (peptide, UniProt Q9Y3C1 25-32, looked up)
peptide: NARRK(Me3)AAP
modifications: also: biotin
As to B5, the equilibrium dissociation constant (Kd) in assay [2] was found to be 32.1 ± 27.4 µM.
